This experiment has as its target T1, human NPY2 receptor (human, UniProt P49146 1-381).
T1 construct: whole, on cells; also called hNPY2-R; hNPY2R
T1 sequence (looked up): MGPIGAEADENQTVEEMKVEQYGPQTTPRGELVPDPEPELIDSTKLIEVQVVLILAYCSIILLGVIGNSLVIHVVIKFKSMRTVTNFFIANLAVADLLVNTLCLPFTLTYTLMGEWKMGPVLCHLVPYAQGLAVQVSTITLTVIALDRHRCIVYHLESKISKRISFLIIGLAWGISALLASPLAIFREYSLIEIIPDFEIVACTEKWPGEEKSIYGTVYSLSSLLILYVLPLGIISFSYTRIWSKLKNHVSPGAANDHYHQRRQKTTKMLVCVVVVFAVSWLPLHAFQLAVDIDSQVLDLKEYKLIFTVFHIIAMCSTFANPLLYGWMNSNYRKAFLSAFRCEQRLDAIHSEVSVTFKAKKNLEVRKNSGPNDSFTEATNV
The experiment can be described thus: RLB: displacement of 125I-PYY(1-36) from hNPY2R membranes. A general note: Displacement assays read how much labelled ligand stays bound in the presence of the test substance.

Here are results for six molecules from patent US20260015399A1 (Boehringer Ingelheim, published 2026).

The Ki is a dissociation constant, usually derived from enzyme kinetics or from competition with a known ligand. A higher Ki goes with a looser hold on the target.

*1 amine or outer side, *2 acyl side, *3 side chain or, on linkers, in order; H or OH if unused. Side-chain parts run from the residue outwards. The star is where a group is joined. C18 diacid = O=C(O)CCCCCCCCCCCCCCCCC(=O)*; γGlu = O=C(O)[C@H](CCC(=O)[*:2])N[*:1]; Isovaleryl = CC(C)CC(=O)*; Ahx = NCCCCCC(=O)O

B1: Compound 180 (peptide)
peptide: Isovaleryl-APEK([Ahx-γGlu-C18 diacid])PEEDATPEELQRYYVSLRHYYNWLTKQRY-NH2
SMILES: CC(C)CC(=O)N[C@@H](C)C(=O)N1CCC[C@H]1C(=O)N[C@@H](CCC(=O)O)C(=O)N[C@@H](CCCCNC(=O)CCCCCNC(=O)CC[C@H](NC(=O)CCCCCCCCCCCCCCCCC(=O)O)C(=O)O)C(=O)N1CCC[C@H]1C(=O)N[C@@H](CCC(=O)O)C(=O)N[C@@H](CCC(=O)O)C(=O)N[C@@H](CC(=O)O)C(=O)N[C@@H](C)C(=O)N[C@H](C(=O)N1CCC[C@H]1C(=O)N[C@@H](CCC(=O)O)C(=O)N[C@@H](CCC(=O)O)C(=O)N[C@@H](CC(C)C)C(=O)N[C@@H](CCC(N)=O)C(=O)N[C@@H](CCCNC(=N)N)C(=O)N[C@@H](Cc1ccc(O)cc1)C(=O)N[C@@H](Cc1ccc(O)cc1)C(=O)N[C@H](C(=O)N[C@@H](CO)C(=O)N[C@@H](CC(C)C)C(=O)N[C@@H](CCCNC(=N)N)C(=O)N[C@@H](Cc1c[nH]cn1)C(=O)N[C@@H](Cc1ccc(O)cc1)C(=O)N[C@@H](Cc1ccc(O)cc1)C(=O)N[C@@H](CC(N)=O)C(=O)N[C@@H](Cc1c[nH]c2ccccc12)C(=O)N[C@@H](CC(C)C)C(=O)N[C@H](C(=O)N[C@@H](CCCCN)C(=O)N[C@@H](CCC(N)=O)C(=O)N[C@@H](CCCNC(=N)N)C(=O)N[C@@H](Cc1ccc(O)cc1)C(N)=O)[C@@H](C)O)C(C)C)[C@@H](C)O
B1 came in with a Ki of 15.1 nM.

B2: Compound 190 (peptide)
peptide: Isovaleryl-APAK([Ahx-γGlu-C18 diacid])PEEDATPEELQRYYISLRHYYNWLTRQRY-NH2
SMILES: CC[C@H](C)[C@H](NC(=O)[C@H](Cc1ccc(O)cc1)NC(=O)[C@H](Cc1ccc(O)cc1)NC(=O)[C@H](CCCNC(=N)N)NC(=O)[C@H](CCC(N)=O)NC(=O)[C@H](CC(C)C)NC(=O)[C@H](CCC(=O)O)NC(=O)[C@H](CCC(=O)O)NC(=O)[C@@H]1CCCN1C(=O)[C@@H](NC(=O)[C@H](C)NC(=O)[C@H](CC(=O)O)NC(=O)[C@H](CCC(=O)O)NC(=O)[C@H](CCC(=O)O)NC(=O)[C@@H]1CCCN1C(=O)[C@H](CCCCNC(=O)CCCCCNC(=O)CC[C@H](NC(=O)CCCCCCCCCCCCCCCCC(=O)O)C(=O)O)NC(=O)[C@H](C)NC(=O)[C@@H]1CCCN1C(=O)[C@H](C)NC(=O)CC(C)C)[C@@H](C)O)C(=O)N[C@@H](CO)C(=O)N[C@@H](CC(C)C)C(=O)N[C@@H](CCCNC(=N)N)C(=O)N[C@@H](Cc1c[nH]cn1)C(=O)N[C@@H](Cc1ccc(O)cc1)C(=O)N[C@@H](Cc1ccc(O)cc1)C(=O)N[C@@H](CC(N)=O)C(=O)N[C@@H](Cc1c[nH]c2ccccc12)C(=O)N[C@@H](CC(C)C)C(=O)N[C@H](C(=O)N[C@@H](CCCNC(=N)N)C(=O)N[C@@H](CCC(N)=O)C(=O)N[C@@H](CCCNC(=N)N)C(=O)N[C@@H](Cc1ccc(O)cc1)C(N)=O)[C@@H](C)O
In the case of B2, the inhibition constant Ki was 1.95 nM.

B3: Compound 185 (peptide)
peptide: Isovaleryl-APAK([Ahx-γGlu-C18 diacid])PEEDASEEELQRYYVSLRHYYNWLTRQRY-NH2
SMILES: CC(C)CC(=O)N[C@@H](C)C(=O)N1CCC[C@H]1C(=O)N[C@@H](C)C(=O)N[C@@H](CCCCNC(=O)CCCCCNC(=O)CC[C@H](NC(=O)CCCCCCCCCCCCCCCCC(=O)O)C(=O)O)C(=O)N1CCC[C@H]1C(=O)N[C@@H](CCC(=O)O)C(=O)N[C@@H](CCC(=O)O)C(=O)N[C@@H](CC(=O)O)C(=O)N[C@@H](C)C(=O)N[C@@H](CO)C(=O)N[C@@H](CCC(=O)O)C(=O)N[C@@H](CCC(=O)O)C(=O)N[C@@H](CCC(=O)O)C(=O)N[C@@H](CC(C)C)C(=O)N[C@@H](CCC(N)=O)C(=O)N[C@@H](CCCNC(=N)N)C(=O)N[C@@H](Cc1ccc(O)cc1)C(=O)N[C@@H](Cc1ccc(O)cc1)C(=O)N[C@H](C(=O)N[C@@H](CO)C(=O)N[C@@H](CC(C)C)C(=O)N[C@@H](CCCNC(=N)N)C(=O)N[C@@H](Cc1c[nH]cn1)C(=O)N[C@@H](Cc1ccc(O)cc1)C(=O)N[C@@H](Cc1ccc(O)cc1)C(=O)N[C@@H](CC(N)=O)C(=O)N[C@@H](Cc1c[nH]c2ccccc12)C(=O)N[C@@H](CC(C)C)C(=O)N[C@H](C(=O)N[C@@H](CCCNC(=N)N)C(=O)N[C@@H](CCC(N)=O)C(=O)N[C@@H](CCCNC(=N)N)C(=O)N[C@@H](Cc1ccc(O)cc1)C(N)=O)[C@@H](C)O)C(C)C
B3 yielded an inhibition constant (Ki) of 2.06 nM.

B4: Compound 188 (peptide)
peptide: Isovaleryl-APEK([Ahx-γGlu-C18 diacid])PEEDATPEELQRYYVSLRHYYNWLQRQRY-NH2
SMILES: CC(C)CC(=O)N[C@@H](C)C(=O)N1CCC[C@H]1C(=O)N[C@@H](CCC(=O)O)C(=O)N[C@@H](CCCCNC(=O)CCCCCNC(=O)CC[C@H](NC(=O)CCCCCCCCCCCCCCCCC(=O)O)C(=O)O)C(=O)N1CCC[C@H]1C(=O)N[C@@H](CCC(=O)O)C(=O)N[C@@H](CCC(=O)O)C(=O)N[C@@H](CC(=O)O)C(=O)N[C@@H](C)C(=O)N[C@H](C(=O)N1CCC[C@H]1C(=O)N[C@@H](CCC(=O)O)C(=O)N[C@@H](CCC(=O)O)C(=O)N[C@@H](CC(C)C)C(=O)N[C@@H](CCC(N)=O)C(=O)N[C@@H](CCCNC(=N)N)C(=O)N[C@@H](Cc1ccc(O)cc1)C(=O)N[C@@H](Cc1ccc(O)cc1)C(=O)N[C@H](C(=O)N[C@@H](CO)C(=O)N[C@@H](CC(C)C)C(=O)N[C@@H](CCCNC(=N)N)C(=O)N[C@@H](Cc1c[nH]cn1)C(=O)N[C@@H](Cc1ccc(O)cc1)C(=O)N[C@@H](Cc1ccc(O)cc1)C(=O)N[C@@H](CC(N)=O)C(=O)N[C@@H](Cc1c[nH]c2ccccc12)C(=O)N[C@@H](CC(C)C)C(=O)N[C@@H](CCC(N)=O)C(=O)N[C@@H](CCCNC(=N)N)C(=O)N[C@@H](CCC(N)=O)C(=O)N[C@@H](CCCNC(=N)N)C(=O)N[C@@H](Cc1ccc(O)cc1)C(N)=O)C(C)C)[C@@H](C)O
In turn, B4 showed an inhibition constant Ki of 5.46 nM.

B5: Compound 187 (peptide)
peptide: Isovaleryl-APEK([Ahx-γGlu-C18 diacid])PEEDATPEEPQRYYVSLRHYYNWLTRQRY-NH2
SMILES: CC(C)CC(=O)N[C@@H](C)C(=O)N1CCC[C@H]1C(=O)N[C@@H](CCC(=O)O)C(=O)N[C@@H](CCCCNC(=O)CCCCCNC(=O)CC[C@H](NC(=O)CCCCCCCCCCCCCCCCC(=O)O)C(=O)O)C(=O)N1CCC[C@H]1C(=O)N[C@@H](CCC(=O)O)C(=O)N[C@@H](CCC(=O)O)C(=O)N[C@@H](CC(=O)O)C(=O)N[C@@H](C)C(=O)N[C@H](C(=O)N1CCC[C@H]1C(=O)N[C@@H](CCC(=O)O)C(=O)N[C@@H](CCC(=O)O)C(=O)N1CCC[C@H]1C(=O)N[C@@H](CCC(N)=O)C(=O)N[C@@H](CCCNC(=N)N)C(=O)N[C@@H](Cc1ccc(O)cc1)C(=O)N[C@@H](Cc1ccc(O)cc1)C(=O)N[C@H](C(=O)N[C@@H](CO)C(=O)N[C@@H](CC(C)C)C(=O)N[C@@H](CCCNC(=N)N)C(=O)N[C@@H](Cc1c[nH]cn1)C(=O)N[C@@H](Cc1ccc(O)cc1)C(=O)N[C@@H](Cc1ccc(O)cc1)C(=O)N[C@@H](CC(N)=O)C(=O)N[C@@H](Cc1c[nH]c2ccccc12)C(=O)N[C@@H](CC(C)C)C(=O)N[C@H](C(=O)N[C@@H](CCCNC(=N)N)C(=O)N[C@@H](CCC(N)=O)C(=O)N[C@@H](CCCNC(=N)N)C(=O)N[C@@H](Cc1ccc(O)cc1)C(N)=O)[C@@H](C)O)C(C)C)[C@@H](C)O
As for B5, the affinity, expressed as Ki, was 15.3 nM.

B6: Compound 181 (peptide)
peptide: Isovaleryl-APAK([Ahx-γGlu-C18 diacid])PEADAEPEEIQRYYVALRHYYNWLTRQRY-NH2
SMILES: CC[C@H](C)[C@H](NC(=O)[C@H](CCC(=O)O)NC(=O)[C@H](CCC(=O)O)NC(=O)[C@@H]1CCCN1C(=O)[C@H](CCC(=O)O)NC(=O)[C@H](C)NC(=O)[C@H](CC(=O)O)NC(=O)[C@H](C)NC(=O)[C@H](CCC(=O)O)NC(=O)[C@@H]1CCCN1C(=O)[C@H](CCCCNC(=O)CCCCCNC(=O)CC[C@H](NC(=O)CCCCCCCCCCCCCCCCC(=O)O)C(=O)O)NC(=O)[C@H](C)NC(=O)[C@@H]1CCCN1C(=O)[C@H](C)NC(=O)CC(C)C)C(=O)N[C@@H](CCC(N)=O)C(=O)N[C@@H](CCCNC(=N)N)C(=O)N[C@@H](Cc1ccc(O)cc1)C(=O)N[C@@H](Cc1ccc(O)cc1)C(=O)N[C@H](C(=O)N[C@@H](C)C(=O)N[C@@H](CC(C)C)C(=O)N[C@@H](CCCNC(=N)N)C(=O)N[C@@H](Cc1c[nH]cn1)C(=O)N[C@@H](Cc1ccc(O)cc1)C(=O)N[C@@H](Cc1ccc(O)cc1)C(=O)N[C@@H](CC(N)=O)C(=O)N[C@@H](Cc1c[nH]c2ccccc12)C(=O)N[C@@H](CC(C)C)C(=O)N[C@H](C(=O)N[C@@H](CCCNC(=N)N)C(=O)N[C@@H](CCC(N)=O)C(=O)N[C@@H](CCCNC(=N)N)C(=O)N[C@@H](Cc1ccc(O)cc1)C(N)=O)[C@@H](C)O)C(C)C
With B6, the inhibition constant Ki amounted to 1.33 nM.
